Laboratory results: US20240092853A1 (Hoffmann-La Roche, published 2024)
Residue numbers refer to the chain shown, from its start.

B1: ExplResIEE.P026.099 (ligand)
chain: APASSSTKKTQEQLEHLLLELQNILNGINNYKNPKLTRMLTAKFAMPKKATELKHLQCLEEELKPLEEVLNGAQSKNFHLNPRELIENINVIVLELKGSETTFMCEYADETATIVEFLNEWIEFAQSIIETLN
notes: soluble pH-dependent IL2v variant in bacterial supernatant, first library; not shown: C-terminal His tag and Flag tag of the phagemid
B2: ExplResIEE.P026.191 (ligand)
chain: B1 chain with L19D, E20D, N23M, N81D, E84D, E87S, N133E
notes: as m5; not shown: C-terminal His tag and Flag tag of the phagemid
B3: ExplResIEE.P026.355 (ligand)
chain: B1 chain with Q11E, E20D, N23Q, N81D, E84D, V91D, E120R, E123T, N133Q
notes: as for B2
B4: ExplResIEE.P030.006 (ligand)
chain: B1 chain with E12L, E20D, N23M, N81D, E84Q, E87D, V91N, E120R, E123Q, N133D
notes: as for B2
B5: ExplResIEE.P041.554 (ligand)
chain: B1 chain with E12Q, L19Q, E20D, N23M, N81H, E84D, E87S, V91E, E120R, N133E
notes: as for B2
B6: ExplResIEE.P026.175 (ligand)
chain: B1 chain with Q11E, E12L, E20Q, N23E, N81D, E120R, E123T
notes: as for B2
B7: ExplResIEE.P027.359 (ligand)
chain: B1 chain with Q11E, E12L, L19D, E20D, N23M, N81D, E87S, E120R, E123T, N133D
notes: as for B2
B8: ExplResIEE.P041.242 (ligand)
chain: B1 chain with E12L, L19D, E20D, N23M, N81E, E84D, E87S, E120R, E123T, N133D
notes: as for B2
B9: ExplResIEE.P031.226 (ligand)
chain: B1 chain with E12L, L19D, E20D, N81D, E84D, E87S, E120R, E123T, E130S, N133E
notes: as for B2
B10: ExplResIEE.P030.045 (ligand)
chain: B1 chain with E12L, L19D, E20D, N23M, N81E, E87Q, E120H, E123T, N133E
notes: as for B2
B11: ExplResIEE.P042.107 (ligand)
chain: B1 chain with K8E, E12L, N81H, E84Q, E120H, E123T, N133D
notes: as for B2
B12: ExplResIEE.P041.017 (ligand)
chain: B1 chain with Q11E, E20D, N23Q, N81Q, E84D, E87D, V91N, E95Q, E120H, N133E
notes: as for B2
B13: ExplResIEE.P041.449 (ligand)
chain: B1 chain with E12L, E20D, N23M, N81Q, E84D, V91D, E123T, N133D
notes: as for B2
B14: ExplResIEE.P026.237 (ligand)
chain: B1 chain with E12L, E20D, N23M, N81Q, E84D, V91D, E120R, N133D
notes: as for B2
B15: ExplResOnc.P177.0035 (IL2v (consensus all)) (ligand, not shown: large carriers)
chain: APASSSTKKTELQLQELLDDLQMILNGINNYKNPKLTRMLTAKFAMPKKATELKHLQCLEEELKPLEEVLNGAQSKNFHLDPRELIENINVIVLELKGSETTFMCEYADETATIVEFLNHWITFAQSIIETLE
notes: as m20
B16: ExplResOnc.P173.0127 (ligand, not shown: large carriers)
chain: B15 chain with Q15E, M23E, E84D, Q126E, E130S, E133D
notes: as m20
B17: ExplResOnc.P175.0125 (ligand, not shown: large carriers)
chain: B15 chain with L12T, Q15E, Q22E, E133D
notes: as m20
B18: ExplResOnc.P173.0259 (ligand, not shown: large carriers)
chain: B15 chain with D81E, E84D
notes: as m20
B19: ExplResOnc.P173.0087 (ligand, not shown: large carriers)
chain: B15 chain with L12E, Q15E, E16Q, Q22E, M23N, D81E
notes: as m20
B20: ExplResOnc.P175.0368 (ligand, not shown: large carriers)
chain: B15 chain with E11T, L12E, H120E, E133D
notes: as m20
B21: ExplResOnc.P178.0145 (ligand, not shown: large carriers)
chain: B15 chain with L12E, Q15E, E16N, D19L, M23N, D81E, E87S
notes: as m20
B22: ExplResOnc.P173.0079 (ligand, not shown: large carriers)
chain: B15 chain with E11Q, Q15E, Q22E, M23Q, E87D
notes: soluble pH-dependent IL2v variant in bacterial supernatant, second library
B23: ExplResOnc.P173.0239 (ligand, not shown: large carriers)
chain: B15 chain with D19L, Q22E, M23E, D81H, E133D
notes: as m20
B24: ExplResOnc.P174.0040 (ligand, not shown: large carriers)
chain: B15 chain with L12T, Q15E, E16Q, M23E
notes: as m20
B25: ExplResOnc.P172.0344 (ligand, not shown: large carriers)
chain: B1 chain with S6Y, Q13R, H16Q, E20D, Q22E, N23Q, E120H, E123T, N133D
notes: as m20
B26: ExplResOnc.P173.0371 (ligand, not shown: large carriers)
chain: B15 chain with E11Q, Q15E, M23Q, D81N, E87D, E133D
notes: as m20
B27: ExplResOnc.P177.0156 (ligand, not shown: large carriers)
chain: B15 chain with L12S, Q15E, M23Q
notes: as m20
B28: ExplResOnc.P177.0036 (ligand, not shown: large carriers)
chain: B15 chain with D81Q
notes: as m20
B29: ExplResOnc.P173.0364 (ligand, not shown: large carriers)
chain: B15 chain with E11Q, Q15E, E16D, D19L, M23N, E87S
notes: as m20
B30: ExplResOnc.P173.0182 (ligand, not shown: large carriers)
chain: B15 chain with Q15E, D19L, M23E, D81N, Q126E
notes: as m20
B31: ExplResOnc.P174.0327 (ligand, not shown: large carriers)
chain: B15 chain with L12E, Q13H, E16N, Q22E, M23Q, D81E, E87D, E95D, E130S
notes: as m20
B32: ExplResOnc.P173.0156 (ligand, not shown: large carriers)
chain: B15 chain with L12S, E16N, M23E, D81E, E87D
notes: as m20
B33: ExplResOnc.P174.0326 (ligand, not shown: large carriers)
chain: B15 chain with E11Q, Q15E, Q22D, M23Q
notes: as m20
B34: ExplResOnc.P173.0255 (ligand, not shown: large carriers)
chain: B15 chain with L12D, Q13H, D19L, Q22E, M23E, D81N
notes: as m20
B35: ExplResOnc.P174.0173 (ligand, not shown: large carriers)
chain: B15 chain with L12T, Q22H
notes: as m20

Target: T1, IL2R(bg)-Fc construct (human IL2R beta extracellular domain fused to Fc(knob) with avi tag, human IL2R gamma … (human, biotin on the C-terminal avi tag (co-expressed BirA)))
T1 construct: Knob-into-hole Fc heterodimer; also called IL2Rβγ; human heterodimeric IL-2 receptor beta/gamma
Assay: ELISA: biotinylated IL2R(bg)-Fc coated on neutravidin plates, clone in bacterial supernatant bound at pH 6, washing and 30 min incubation at pH 6 or pH 7.4, detection with anti-Flag/HRP; absorption at pH 6 set to 1
Procedure: (§1) FIG. 3. Binding analysis for the first set of selected pH-dependent IL2v variants to IL2Rfβγ at pH 6 and pH 7.4 by ELISA. Bacterial supernatants containing clonal pH-dependent IL2v variants were incubated with previously coated IL2Rfβγ. Prior to the detection by an anti-Flag/HRP secondary antibody, extensive washing for 30 minutes was performed at pH 6 or pH 7.4. The absorption at pH 6 was normalized to a value of 1 and the ratio of absorption levels was compared.
25 μl of 50 nM biotinylated antigen per well were coated at pH 6 on 384-well neutravidin plates and blocked with 2% BSA (50 mM BisTris 140 mM NaCl, 2% BSA, pH 6). Bacterial supernatants containing soluble variants of IL2v were re-buffered to pH 6, added to the plates and incubated for 1 h. Subsequently, several washing steps were performed at either pH 6 or pH 7.4 followed by an incubation step in washing buffer for 30 min at the respective pH. Binding of pH-dependent IL2v variants to the IL2R(bg)-Fc construct was detected via Flag tag by using an anti-Flag/HRP secondary antibody. Comparison of the signal between the two conditions (pH 6 vs pH 7.4) allowed identifying constructs that bind in a pH-dependent manner. The phagemid expressing the parental IL2v construct was used as an internal pH-independent control. […] (FIG. 3), were selected (SEQ ID NOs 5-19) and converted into one-armed (OA) targeted conjugates.

T1 sequence (chain, as listed by the source limits assumed, chain 1 of 2): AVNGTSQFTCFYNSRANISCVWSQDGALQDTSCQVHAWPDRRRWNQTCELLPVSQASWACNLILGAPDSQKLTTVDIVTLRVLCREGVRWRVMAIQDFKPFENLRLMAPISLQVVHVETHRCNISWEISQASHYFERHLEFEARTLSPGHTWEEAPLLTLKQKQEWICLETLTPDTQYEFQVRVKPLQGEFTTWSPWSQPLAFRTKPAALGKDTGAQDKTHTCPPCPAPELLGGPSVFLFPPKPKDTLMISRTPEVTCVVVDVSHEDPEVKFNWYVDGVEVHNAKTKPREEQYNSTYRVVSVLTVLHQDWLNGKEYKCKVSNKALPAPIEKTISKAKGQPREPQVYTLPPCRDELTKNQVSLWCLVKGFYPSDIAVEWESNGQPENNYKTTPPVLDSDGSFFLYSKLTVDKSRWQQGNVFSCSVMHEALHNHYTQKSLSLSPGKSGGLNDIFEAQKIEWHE
T1 sequence (chain, as listed by the source limits assumed, chain 2 of 2): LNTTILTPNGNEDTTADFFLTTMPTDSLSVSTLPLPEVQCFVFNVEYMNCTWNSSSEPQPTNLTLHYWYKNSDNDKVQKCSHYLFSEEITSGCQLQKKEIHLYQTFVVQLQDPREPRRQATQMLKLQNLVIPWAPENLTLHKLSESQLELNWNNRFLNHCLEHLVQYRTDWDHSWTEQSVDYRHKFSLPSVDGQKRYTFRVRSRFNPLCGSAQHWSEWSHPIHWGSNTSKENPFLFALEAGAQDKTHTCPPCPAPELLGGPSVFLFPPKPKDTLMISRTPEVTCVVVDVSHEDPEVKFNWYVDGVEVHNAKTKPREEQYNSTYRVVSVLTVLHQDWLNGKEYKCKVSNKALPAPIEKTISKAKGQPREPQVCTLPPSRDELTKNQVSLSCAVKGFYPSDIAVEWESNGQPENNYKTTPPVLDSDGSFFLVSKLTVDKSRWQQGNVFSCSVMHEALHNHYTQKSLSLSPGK

Q: Does B1 bind?
A: binds

Q: Does B2 bind?
A: binds

Q: Does B3 bind?
A: binds

Q: Does B4 bind?
A: binds

Q: Does B5 bind?
A: binds

Q: Does B6 bind?
A: binds

Q: Does B7 bind?
A: binds

Q: Does B8 bind?
A: binds

Q: Does B9 bind?
A: binds

Q: Does B10 bind?
A: binds

Q: Does B11 bind?
A: binds

Q: Does B12 bind?
A: binds

Q: Does B13 bind?
A: binds

Q: Does B14 bind?
A: binds

Target: T1, IL2R(bg)-Fc construct (human IL2R beta …)
Assay: ELISA: biotinylated IL2R(bg)-Fc coated on neutravidin plates, clone in bacterial supernatant bound at pH 6, washing and 30 min incubation at pH 6.0, 6.5, 7.0 or 7.4, detection with anti-Flag/HRP; absorption at pH 6 set to 1
Procedure: as §1, with “FIG. 4. Binding analysis” for “FIG. 3. Binding analysis”, “for the second set of” for “for the first set of”, “at pH 6, pH 6.5, pH 7 and pH” for “at pH 6 and pH”
25 μl of 50 nM biotinylated antigen per well were coated at pH 6 on 384-well neutravidin plates and blocked with 2% BSA (50 mM BisTris 140 mM NaCL, 2% BSA, pH 6). Bacterial supernatants containing soluble variants of IL2v were re-buffered to pH 6, added to the plates and incubated for 1 h. Subsequently, several washing steps were performed at either pH 6 or pH 7.4 followed by an incubation step in washing buffer for 30 min at the respective pH. Binding of pH-dependent IL2v variants to the IL2R(bg)-Fc construct was detected via Flag tag by using an anti-Flag/HRP secondary antibody. Comparison of the signal between the two conditions (pH6 vs pH7.4) allowed identifying clones that bind in a pH-dependent manner. The phagemid expressing the parental IL2v construct was used as an internal control for a pH-independent signal. Clones with a binding ratio at pH 6 versus pH 7 that greater than 10 were short-listed and re-tested in order to confirm their pH-dependency.
In order to further characterize the selected pH-dependent IL2v variants, they were analyzed for their binding to IL2R(bg)-Fc under four different pH conditions including pH 6, pH 6.5, pH 7, and pH 7.4. Binding at pH 6 was normalized to 1 in order to better compare binding among all clones. […] In general, binding intensity at pH 7 and pH 7.4 was reduced between 10-100-fold

Q: Does B15 bind?
A: binds

Q: Does B16 bind?
A: binds

Q: Does B17 bind?
A: binds

Q: Does B18 bind?
A: binds

Q: Does B19 bind?
A: binds

Q: Does B20 bind?
A: binds

Q: Does B21 bind?
A: binds

Q: Does B22 bind?
A: binds

Q: Does B23 bind?
A: binds

Q: Does B24 bind?
A: binds

Q: Does B25 bind?
A: binds

Q: Does B26 bind?
A: binds

Q: Does B27 bind?
A: binds

Q: Does B28 bind?
A: binds

Q: Does B29 bind?
A: binds

Q: Does B30 bind?
A: binds

Q: Does B31 bind?
A: binds

Q: Does B32 bind?
A: binds

Q: Does B33 bind?
A: binds

Q: Does B34 bind?
A: binds

Q: Does B35 bind?
A: binds
